In PMC2827208:

What was measured:
[1] = biological target: wild type recombinant human RetGC1 (human) (UniProt Q02846); experiment: co-localisation of GCAP1-GFP with RetGC1 in co-transfected cells
R838S RetGC1 (human) = R838S RetGC1 (human) (UniProt Q02846); experiment: as above
[2] = biological target: dsRed-tagged RetGC1 (human) (UniProt Q02846); experiment: ratio of GFP and dsRed tag fluorescence in co-transfected cells

- cell:nucleus GCAP1-GFP fluorescence intensity ratio [1]: 10.6
- cell:nucleus GCAP1-GFP fluorescence intensity ratio (R838S RetGC1 (human)): 9.3
- stoichiometry N (GCAP1 per RetGC1) [2]: 0.86
- stoichiometry N ([2]; scale: molar ratio between the two proteins at saturation): 1.01
Substance: GFP-tagged bovine GCAP1 (from UniProt P46065 1-205) (natural protein)
